Source: article PMC10838290 (2024)

Target: GST-tagged ANKRD1 recombinant protein (Homo sapiens (Human), UniProt Q15327)
Assay: GST pulldown with western blot

GST-tagged ANKRD1 recombinant protein, sequence (Q15327 whole entry): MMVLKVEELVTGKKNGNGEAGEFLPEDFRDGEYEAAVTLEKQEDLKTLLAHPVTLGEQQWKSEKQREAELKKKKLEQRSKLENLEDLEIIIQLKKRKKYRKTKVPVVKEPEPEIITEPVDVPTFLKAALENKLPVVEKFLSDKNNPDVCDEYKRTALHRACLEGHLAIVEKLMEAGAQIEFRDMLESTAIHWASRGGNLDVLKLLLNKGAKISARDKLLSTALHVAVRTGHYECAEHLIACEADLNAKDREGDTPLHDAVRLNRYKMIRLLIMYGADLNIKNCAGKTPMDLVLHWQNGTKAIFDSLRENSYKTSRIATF

B1: HIS-tagged JUN (truncated form 1-241aa) (protein)
chain: MTAKMETTFYDDALNASFLPSESGPYGYSNPKILKQSMTLNLADPVGSLKPHLRAKNSDLLTSPDVGLLKLASPELERLIIQSSNGHITTTPTPTQFLCPKNVTDEQEGFAEGFVRALAELHSQNTLPSVTSAAQPVNGAGMVAPAVASVAGGSGSGGFSASLHSEPPVYANLSNFNPGALSSGGGAPSYGAAGLAFPAQPQQQQQPPHHLPQQMPVQHPRLQALKEEPQTVPEMPGETPP
binding result: no binding
